{
  "source": "paper doi:10.1101/2024.09.22.614354",
  "about": "(bioRxiv, 2024)",
  "note": "Where no end group is shown, it is not given here. TMR = tetramethyl rhodamine dye",
  "data": [
    {"biological_target": "T1, TMR-E2F1^TD (peptide of the E2F1 transactivation domain, N-labeled with tetramethyl rhodamine)", "T1 peptide": "{TMR}-GEGIRDLFDCDFGDLTPLD", "experiment": "fluorescence polarisation", "units": {"fold weaker binding relative to wild type": "fold"}, "values": [
      {"molecule": "Rb^P E533K (domain or fragment) NTIQQLMMILNSASDQPSENLISYFNNCTVNPKESILKRVKDIGYIFKEKFAKAVGQGCVEIGSQRYKLGVRLYYRVMESMLKSEEERLSIQNFSKLLNDNIFHMSLLACALEVVMATYSRSTSQNLDSGTDLSFPWILNVLNLKAFDFYKVIKSFIKAEGNLTREMIKHLERCEHRIMESLAWLSDSPLFDLIKQSKDREGPTDHLESACPLNLPLQNNHTAADMYLSPVRSPKKKGSTTRVNSTANAETQATSAFQTQKPLKSTSLSLFYKKVYRLAYLRLNTLCERLLSEHPELEHIIWTLFQHTLQNEYELMRDRHLDQIMMCSMYGICKVKNIDLKFKIIVTAYKDLPHAVQETFKRVLIKEEEYDSIIVFYNSVFMQRLKTNILQYASTRPPTLSPIPHIPRS", "fold weaker binding relative to wild type": 59},
      {"molecule": "Rb^P I703F (domain or fragment) NTIQQLMMILNSASDQPSENLISYFNNCTVNPKESILKRVKDIGYIFKEKFAKAVGQGCVEIGSQRYKLGVRLYYRVMESMLKSEEERLSIQNFSKLLNDNIFHMSLLACALEVVMATYSRSTSQNLDSGTDLSFPWILNVLNLKAFDFYKVIESFIKAEGNLTREMIKHLERCEHRIMESLAWLSDSPLFDLIKQSKDREGPTDHLESACPLNLPLQNNHTAADMYLSPVRSPKKKGSTTRVNSTANAETQATSAFQTQKPLKSTSLSLFYKKVYRLAYLRLNTLCERLLSEHPELEHIIWTLFQHTLQNEYELMRDRHLDQFMMCSMYGICKVKNIDLKFKIIVTAYKDLPHAVQETFKRVLIKEEEYDSIIVFYNSVFMQRLKTNILQYASTRPPTLSPIPHIPRS", "fold weaker binding relative to wild type": "~5"},
      {"molecule": "Rb^P K548N (domain or fragment) NTIQQLMMILNSASDQPSENLISYFNNCTVNPKESILKRVKDIGYIFKEKFAKAVGQGCVEIGSQRYKLGVRLYYRVMESMLKSEEERLSIQNFSKLLNDNIFHMSLLACALEVVMATYSRSTSQNLDSGTDLSFPWILNVLNLKAFDFYKVIESFIKAEGNLTREMINHLERCEHRIMESLAWLSDSPLFDLIKQSKDREGPTDHLESACPLNLPLQNNHTAADMYLSPVRSPKKKGSTTRVNSTANAETQATSAFQTQKPLKSTSLSLFYKKVYRLAYLRLNTLCERLLSEHPELEHIIWTLFQHTLQNEYELMRDRHLDQIMMCSMYGICKVKNIDLKFKIIVTAYKDLPHAVQETFKRVLIKEEEYDSIIVFYNSVFMQRLKTNILQYASTRPPTLSPIPHIPRS", "fold weaker binding relative to wild type": 10},
      {"molecule": "Rb^P R656Q (domain or fragment) NTIQQLMMILNSASDQPSENLISYFNNCTVNPKESILKRVKDIGYIFKEKFAKAVGQGCVEIGSQRYKLGVRLYYRVMESMLKSEEERLSIQNFSKLLNDNIFHMSLLACALEVVMATYSRSTSQNLDSGTDLSFPWILNVLNLKAFDFYKVIESFIKAEGNLTREMIKHLERCEHRIMESLAWLSDSPLFDLIKQSKDREGPTDHLESACPLNLPLQNNHTAADMYLSPVRSPKKKGSTTRVNSTANAETQATSAFQTQKPLKSTSLSLFYKKVYQLAYLRLNTLCERLLSEHPELEHIIWTLFQHTLQNEYELMRDRHLDQIMMCSMYGICKVKNIDLKFKIIVTAYKDLPHAVQETFKRVLIKEEEYDSIIVFYNSVFMQRLKTNILQYASTRPPTLSPIPHIPRS", "fold weaker binding relative to wild type": 13},
      {"molecule": "Rb^P S474I (domain or fragment) NTIQQLMMILNSASDQPSENLISYFNNCTVNPKESILKRVKDIGYIFKEKFAKAVGQGCVEIGSQRYKLGVRLYYRVMESMLKSEEERLSIQNFIKLLNDNIFHMSLLACALEVVMATYSRSTSQNLDSGTDLSFPWILNVLNLKAFDFYKVIESFIKAEGNLTREMIKHLERCEHRIMESLAWLSDSPLFDLIKQSKDREGPTDHLESACPLNLPLQNNHTAADMYLSPVRSPKKKGSTTRVNSTANAETQATSAFQTQKPLKSTSLSLFYKKVYRLAYLRLNTLCERLLSEHPELEHIIWTLFQHTLQNEYELMRDRHLDQIMMCSMYGICKVKNIDLKFKIIVTAYKDLPHAVQETFKRVLIKEEEYDSIIVFYNSVFMQRLKTNILQYASTRPPTLSPIPHIPRS", "fold weaker binding relative to wild type": 27},
      {"molecule": "Rb^P S474R (domain or fragment) NTIQQLMMILNSASDQPSENLISYFNNCTVNPKESILKRVKDIGYIFKEKFAKAVGQGCVEIGSQRYKLGVRLYYRVMESMLKSEEERLSIQNFRKLLNDNIFHMSLLACALEVVMATYSRSTSQNLDSGTDLSFPWILNVLNLKAFDFYKVIESFIKAEGNLTREMIKHLERCEHRIMESLAWLSDSPLFDLIKQSKDREGPTDHLESACPLNLPLQNNHTAADMYLSPVRSPKKKGSTTRVNSTANAETQATSAFQTQKPLKSTSLSLFYKKVYRLAYLRLNTLCERLLSEHPELEHIIWTLFQHTLQNEYELMRDRHLDQIMMCSMYGICKVKNIDLKFKIIVTAYKDLPHAVQETFKRVLIKEEEYDSIIVFYNSVFMQRLKTNILQYASTRPPTLSPIPHIPRS", "fold weaker binding relative to wild type": 27},
      {"molecule": "Rb^P H555Y (domain or fragment) NTIQQLMMILNSASDQPSENLISYFNNCTVNPKESILKRVKDIGYIFKEKFAKAVGQGCVEIGSQRYKLGVRLYYRVMESMLKSEEERLSIQNFSKLLNDNIFHMSLLACALEVVMATYSRSTSQNLDSGTDLSFPWILNVLNLKAFDFYKVIESFIKAEGNLTREMIKHLERCEYRIMESLAWLSDSPLFDLIKQSKDREGPTDHLESACPLNLPLQNNHTAADMYLSPVRSPKKKGSTTRVNSTANAETQATSAFQTQKPLKSTSLSLFYKKVYRLAYLRLNTLCERLLSEHPELEHIIWTLFQHTLQNEYELMRDRHLDQIMMCSMYGICKVKNIDLKFKIIVTAYKDLPHAVQETFKRVLIKEEEYDSIIVFYNSVFMQRLKTNILQYASTRPPTLSPIPHIPRS", "fold weaker binding relative to wild type": 12},
      {"molecule": "Rb^P S534R (domain or fragment) NTIQQLMMILNSASDQPSENLISYFNNCTVNPKESILKRVKDIGYIFKEKFAKAVGQGCVEIGSQRYKLGVRLYYRVMESMLKSEEERLSIQNFSKLLNDNIFHMSLLACALEVVMATYSRSTSQNLDSGTDLSFPWILNVLNLKAFDFYKVIERFIKAEGNLTREMIKHLERCEHRIMESLAWLSDSPLFDLIKQSKDREGPTDHLESACPLNLPLQNNHTAADMYLSPVRSPKKKGSTTRVNSTANAETQATSAFQTQKPLKSTSLSLFYKKVYRLAYLRLNTLCERLLSEHPELEHIIWTLFQHTLQNEYELMRDRHLDQIMMCSMYGICKVKNIDLKFKIIVTAYKDLPHAVQETFKRVLIKEEEYDSIIVFYNSVFMQRLKTNILQYASTRPPTLSPIPHIPRS", "fold weaker binding relative to wild type": 820},
      {"molecule": "Rb^P K530I (domain or fragment) NTIQQLMMILNSASDQPSENLISYFNNCTVNPKESILKRVKDIGYIFKEKFAKAVGQGCVEIGSQRYKLGVRLYYRVMESMLKSEEERLSIQNFSKLLNDNIFHMSLLACALEVVMATYSRSTSQNLDSGTDLSFPWILNVLNLKAFDFYIVIESFIKAEGNLTREMIKHLERCEHRIMESLAWLSDSPLFDLIKQSKDREGPTDHLESACPLNLPLQNNHTAADMYLSPVRSPKKKGSTTRVNSTANAETQATSAFQTQKPLKSTSLSLFYKKVYRLAYLRLNTLCERLLSEHPELEHIIWTLFQHTLQNEYELMRDRHLDQIMMCSMYGICKVKNIDLKFKIIVTAYKDLPHAVQETFKRVLIKEEEYDSIIVFYNSVFMQRLKTNILQYASTRPPTLSPIPHIPRS", "fold weaker binding relative to wild type": 63}
    ]},
    {"biological_target": "T1, TMR-E2F1^TD (peptide of the E2F1 …)", "experiment": "fluorescence polarisation", "remark": "another data set of the same source", "units": {"fold weaker binding at 37°C than at 25°C": "fold", "fold weaker binding relative to wild type": "fold"}, "values": [
      {"molecule": "Rb^P I703F (domain or fragment) NTIQQLMMILNSASDQPSENLISYFNNCTVNPKESILKRVKDIGYIFKEKFAKAVGQGCVEIGSQRYKLGVRLYYRVMESMLKSEEERLSIQNFSKLLNDNIFHMSLLACALEVVMATYSRSTSQNLDSGTDLSFPWILNVLNLKAFDFYKVIESFIKAEGNLTREMIKHLERCEHRIMESLAWLSDSPLFDLIKQSKDREGPTDHLESACPLNLPLQNNHTAADMYLSPVRSPKKKGSTTRVNSTANAETQATSAFQTQKPLKSTSLSLFYKKVYRLAYLRLNTLCERLLSEHPELEHIIWTLFQHTLQNEYELMRDRHLDQFMMCSMYGICKVKNIDLKFKIIVTAYKDLPHAVQETFKRVLIKEEEYDSIIVFYNSVFMQRLKTNILQYASTRPPTLSPIPHIPRS", "fold weaker binding at 37°C than at 25°C": 6, "fold weaker binding relative to wild type": 17}
    ]},
    {"biological_target": "TMR-E2F1^TD (peptide of the E2F1 transactivation domain, N-labeled with tetramethyl rhodamine)", "experiment": "fluorescence polarisation", "units": {"fold weaker binding relative to wild type": "fold"}, "values": [
      {"molecule": "Rb^P E544K (from UniProt P06400 380-788) (domain or fragment)", "fold weaker binding relative to wild type": 34}
    ]}
  ]
}
